Assay results reported in US20250376535A1 (BEIJING STARMAB BIOMED TECHNOLOGY, published 2025).
Positions count from the first letter of the chain named.

T1: recombinant human IL-22 (human, UniProt Q9GZX6 34-179)
T1 construct: also called rh-IL22
T1 sequence: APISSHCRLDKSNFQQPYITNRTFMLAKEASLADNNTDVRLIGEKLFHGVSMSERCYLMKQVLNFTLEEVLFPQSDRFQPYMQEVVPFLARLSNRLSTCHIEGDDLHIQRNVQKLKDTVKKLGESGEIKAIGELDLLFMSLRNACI

B1: pgEG-SX39 (VHH, not shown: small tags and cut ends)
VHH: QVQVAESGGGLVQAGESLRLSCTASGSISTINAVRWYRQTPGKQREFVAYISTDGGTDYADPVKGRFTISRDNAKNTWFLQMNSLKPEDTGVYMCNVVVTPYAYWGQGTQVTVSS
B2: pgEG-SX52 (VHH, not shown: small tags and cut ends)
VHH: QVQLVESGGGLVKAGKSLRLSCAASVSSFDTYTMGWYRQAPGKQREQVAIITPGAGTHYADSVKGRFTISRDNAKNTVYLQMSSLKLEDTAVYYCKARHRITGYDYWGQGTQVTVSS
B3: pgEG-SX56 (VHH, not shown: small tags and cut ends)
VHH: QVQLVESGGGFVQAGGSLRLSCAASGRFLSIADMDWYRRVPGKQRELVASITRAGDTALEDSVKGRFTISRDNAKNTVHLQMNSVKPEDTAVYYCRADVTRSGTPYFEVWGQGTLVTVSS
B4: pgEG-SX55 (VHH, not shown: small tags and cut ends)
VHH: QVQLVESGGGLVQPGGSLRLSCAGTGLIFTTYVMGWYRQAPGKQRELVAIVTNGGGTHYADFVKGRFTISRDNAKNTVSLQMNLLKPEDTAVYYCNARHLVRPGTNDYWGQGTLVTVSS
B5: pgDD40-HZ-28 (VHH, not shown: small tags and cut ends)
VHH: EVQLVESGGGLVQAGGSLRLSCVASERTFTPVRMGWFRQAPGKEREIVAAITWSDGSTYYADAVKGRFTISRDNALNAVYLQIDSLKPEDTAVYVCAASTSPYSTHLQFRYWGQGTQVTVSS
B6: pgDD40-HZ-47 (VHH, not shown: small tags and cut ends)
VHH: QVQLVESGGGLVQPGGSMRLSCSASGFSISVYWMSWVRRAPGKGLEWVSNLGADGVTAQYSDSVKGRFTIARDTAKNTLYLQMNSLKPEDTAVYYCNAMTGMNPAEEEAYWGQGTQVTVSS
B7: pgDD40-SZ-7 (VHH, not shown: small tags and cut ends)
VHH: QVQLVESGGALAQPGGSLRLSCEASATVRSVNAMAWYRQGPGKPRELVANITSGDTTYYADSVKGRFTLSREGARNTVYLQMNSLKPEDTAVYQCNIHYTSTGGIRRDYWGRGTQVTVSS
B8: pgDD40-SZ-1 (VHH, not shown: small tags and cut ends)
VHH: B7 VHH with A26T, T27N, G54D, T56A, I97V, T102W
B9: pgDD40-SZ-2 (VHH, not shown: small tags and cut ends)
VHH: B7 VHH with Q1E, V28I, L47M
B10: pgDD40-HZ-15 (VHH, not shown: small tags and cut ends)
VHH: EVQLVESGGGLVQAGGSLRLSCAASGFTFDDYAIGWFRQAPGKEREGVSCLSKNVGNTYYADSVKGRFTISSDNAKNTVYLQMNSLKPEDTAVYYCAKGSGYGCYDFPRYAVWGQGTQVTVSS
B11: IL22-A3 (VHH)
VHH: QVQLVESGGGLVQPGGSLRLSCEASGRTFSSVSMGWFRQAPGKERVIVAAADWSGTTYYTGSLKGRFTISRDNAKNMVYLQMNSLKPEDTAVYYCAASDPRRSAYKYWGQGTQVTVSS
notes: Llama single domain antibody with C-terminal His-tag; not shown: C-terminal His-tag
B12: Humanized IL22-223 (VHH)
VHH: EVQLVESGGGLVQPGGSLRLSCAASGFTLNYYVMSWFRQAPGKEREGVSAISSSDGSTYYADSVKGRFTISRDNSKNTLYLQMNSLRAEDTAVYYCAADLRAYYTVPLWASEYDYWGQGTVSS
notes: not shown: C-terminal His-tag
B13: IL22-354 (VHH)
VHH: EVQLVESGGGLVQPGGSLRLSCAASGFTLDYYAIAWFRQAPGKEREGVSCISTSDGSTYYADSVKGRFTISRDNAKNTVYLQMNSLKPEDTAVYYCAADPSPFFVAPLVDYEYDYWGQGTQVTVSS
notes: as for B11
B14: IL22-223 (VHH)
VHH: QVQLVESGGGLAQPGGSLRLSCAVSGFTLNYYVIAWFRQAPGKEREGVSCISSSDGSTYYTDSVKGRFTISRDNAKNTVYLQMDSLKPEDTAVYYCAADLRAYYTVPLWASEYDYWGQGTQVTVSS
notes: as for B11
B15: MSA2 (VHH)
VHH: EVQLVESGGGLAQAGGFLRLSCADSGHSFSLYAMAWFRQTPEKEREFVAAISSSGGDTYYADSVKGRFTISRENAKNTVYLQMDSLKPGDTAVYFCAGNYYTSQLMRGMYEHWGQGTQVTVSS
notes: Llama single domain antibody with C-terminal His-tag, made in HEK293; not shown: C-terminal His-tag
B16: MSA6 (VHH)
VHH: QVQLVESGGGLVQPGGSLRLSCAASGLPSRVMGWFRQAAGKEREFVASISVSGIDTRYGDSVKGRFTISRDNTKSSLYLQMNSLKPEDTAVYYCAATDGQGNYRHWGQGTQVTVSS
notes: as for B15

molecular target: T2, EGFR Fc (human, UniProt P00533 25-645); test: ELISA, EGFR Fc coated
T2 construct: also called EGFR-hFc; recombinant human EGFR-Fc
Protocol: (§1) After four rounds of washing with PBST, the plate was incubated with detecting antibody anti-his-HRP (1:4000 dilution) 100 μl per well for one hour with shaking at 60 rpm. The plate was developed with 100 μL of TMB per well in the dark and then stopped by 50 μL of stop solution per well. […] Data was analyzed using GraphPad Prisma 9.1.

EC50 [nM]	Binder
2760	B1
0.105	B2
0.044	B3
0.237	B4

molecular target: T3, recombinant human CD40-Fc (human, UniProt P25942 21-193); test: ELISA, CD40-Fc coated, VHH at 8 nM
T3 construct: also called rh-CD40-Fc; CD40-hFc
T3 sequence (P25942 21-193): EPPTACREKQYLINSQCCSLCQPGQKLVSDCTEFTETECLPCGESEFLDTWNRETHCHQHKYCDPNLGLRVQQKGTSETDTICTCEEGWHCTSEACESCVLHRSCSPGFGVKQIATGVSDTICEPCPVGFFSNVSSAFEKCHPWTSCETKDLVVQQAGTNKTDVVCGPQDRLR
Protocol: (§2) After four times washing with PBST, the plate was incubated with detecting antibody anti-his-HRP (1:4000 dilution) 100 μl per well for one hour with shaking at 60 rpm. The plate was developed with 100 μL of TMB per well in the dark and then stopped by 50 μL of stop solution per well.

OD450	Binder
0.059	B5
0.063	B6
1.6	B7
1.66	B8
1.59	B9
0.061	B10

molecular target: T2, EGFR Fc; test: ELISA, EGFR Fc coated, VHH at 2 nM
Protocol: as §1

OD450	Binder
0.073	B1
2.34	B2
1.46	B3
2.22	B4

molecular target: T3, recombinant human CD40-Fc; test: ELISA, CD40-Fc coated, VHH at 40 nM
Protocol: as §2

OD450	Binder
0.067	B5
0.066	B6
1.67	B7
1.72	B8
1.72	B9
0.076	B10

molecular target: T2, EGFR Fc; test: ELISA, EGFR Fc coated, VHH at 10 nM
Protocol: as §1

OD450	Binder
0.093	B1
2.44	B2
1.54	B3
2.42	B4

molecular target: T2, EGFR Fc; test: ELISA, EGFR Fc coated, VHH at 50 nM
Protocol: as §1

OD450	Binder
0.147	B1
2.33	B2
1.47	B3
2.2	B4

molecular target: T3, recombinant human CD40-Fc; test: ELISA, CD40-Fc coated, VHH at 1.6 nM
Protocol: as §2

OD450	Binder
0.062	B5
0.056	B6
1.01	B7
0.866	B8
0.94	B9
0.062	B10

molecular target: T3, recombinant human CD40-Fc; test: ELISA, CD40-Fc coated, VHH at 200 nM
Protocol: as §2

OD450	Binder
0.123	B5
0.126	B6
1.62	B7
1.69	B8
1.52	B9
0.166	B10

molecular target: T2, EGFR Fc; test: ELISA, EGFR Fc coated, VHH at 0.4 nM
Protocol: as §1

OD450	Binder
0.067	B1
2	B2
1.32	B3
1.61	B4

molecular target: T2, EGFR Fc; test: ELISA, EGFR Fc coated, VHH at 500 nM
Protocol: as §1

OD450	Binder
0.503	B1
2.23	B2
1.5	B3
2.24	B4

molecular target: T3, recombinant human CD40-Fc; test: ELISA, CD40-Fc coated, VHH at 0.32 nM
Protocol: as §2

OD450	Binder
0.066	B5
0.063	B6
0.332	B7
0.248	B8
0.293	B9
0.06	B10

molecular target: T3, recombinant human CD40-Fc; test: ELISA, CD40-Fc coated, VHH at 1000 nM
Protocol: as §2

OD450	Binder
0.419	B5
0.569	B6
1.67	B7
1.68	B8
1.64	B9
0.479	B10

molecular target: T2, EGFR Fc; test: ELISA, EGFR Fc coated, VHH at 0.08 nM
Protocol: as §1

OD450	Binder
0.068	B1
1.07	B2
1.15	B3
0.5	B4

molecular target: T3, recombinant human CD40-Fc; test: ELISA, CD40-Fc coated, VHH at 0.013 nM
Protocol: as §2

OD450	Binder
0.075	B5
0.055	B6
0.092	B7
0.056	B8
0.062	B9
0.063	B10

molecular target: T3, recombinant human CD40-Fc; test: ELISA, CD40-Fc coated, VHH at 0.064 nM
Protocol: as §2

OD450	Binder
0.07	B5
0.053	B6
0.088	B7
0.074	B8
0.091	B9
0.062	B10

molecular target: T2, EGFR Fc; test: ELISA, EGFR Fc coated, VHH at 0.016 nM
Protocol: as §1

OD450	Binder
0.072	B1
0.32	B2
0.569	B3
0.193	B4

molecular target: T3, recombinant human CD40-Fc; test: ELISA, CD40-Fc coated, VHH at 0.0026 nM
Protocol: as §2

OD450	Binder
0.061	B5
0.06	B6
0.056	B7
0.055	B8
0.058	B9
0.064	B10

molecular target: T2, EGFR Fc; test: ELISA, EGFR Fc coated, VHH at 0.0032 nM
Protocol: as §1

OD450	Binder
0.075	B1
0.196	B2
0.409	B3
0.125	B4

molecular target: T4, Human CD40 antigen (recombinant, BLI) (human, UniProt P25942 21-193); test: BLI, VHH-His on anti-His tips, human CD40 in solution;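 also: kinetics measured at 30 °C in PBS pH 7.2, association tracked for 200 s, then dissociation followed in PBS lacking CD40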
T4 construct: also called rh-CD40
T4 sequence (P25942 21-193 limits assumed): as the sequence (P25942 21-193) above

Kd [nM]	koff [s⁻¹]	kon [M⁻¹ s⁻¹]	Binder
4.06	0.00372	917000	B5
0.469	0.000625	1.33e+06	B6
< 0.001	1e-06	721000	B7
< 0.001	1e-06	779000	B8
0.0047	3.59e-06	765000	B9
3.12	0.0011	351000	B10

molecular target: T1, recombinant human IL-22; test: BLI (Octet), His-tagged VHH on HIS1K tips, IL-22 in solution
Protocol: Bio-Layer Interferometry (BLI), a label-free technology was used for measuring the binding kinetics of positive llama single domain antibodies. Affinity measurements were performed with Octet QKe equipped with Anti-Penta-His capture (HIS1K) biosensor tips (ForteBio®). The assay was performed at 30 C in 1×PBS buffer (Gibco®, PBS pH7.2). Samples were agitated at 1000 rpm. Prior to analysis, sensors were humidified for 15 minutes. Purified single domain antibodies was tested for its binding capacity with HIS1K sensor tips. Tips were loaded using 20 μg/ml of single domain antibodies. Loading proceeded for 300 s resulting in capture levels of between 1.8 and 2 nm. […] Association was initiated and monitored for 200 s, after which tips were transferred to 1×PBS buffer without Factor protein (Gibco, PBS pH 7.2), in order to monitor dissociation. Sensor data was collected throughout the experiments, processed, and analyzed using the Octet data analysis software 7 (Forte Bio).

Kd [nM]	koff [s⁻¹]	kon [M⁻¹ s⁻¹]	Binder
0.817	0.000405	496000	B11
1.07	0.000547	509000	B12
0.366	0.000184	503000	B13
1.29	0.00036	278000	B14

molecular target: T5, human serum albumin (human, UniProt P02768 25-609); test: BLI (Gator), His-tagged VHH on anti-His sensor, HSA 100 nM in solution
T5 construct: also called HSA
Protocol: Kinetic binding analysis of MSA VHHs were performed with Gator Prime system equipped with analyze software. […] The experiments were done at 30° C. Prior to analysis, sensors were socked in Q buffer for 600 sec with shaking at 1000 rpm, and then 2 μM of HIS tagged MSA VHHs were loaded to Anti-His sensors with shaking at 400 rpm for 120 sec. Loaded sensors were transferred into Q buffer for 60 sec. Association of HSA or MSA at 100 nM was initiated and monitored for 120-180 sec with shaking at 1000 rpm, and finally dissociation in Q buffer for 120-180 sec with 1000 rpm shaking. Software V2.0 (Gator Bio) was used for data analysis. The on-rate (Kₒₙ) and off-rate (Kd) were determined by fitting of the association and dissociation phases of each sample. The mathematical model used assumes a 1:1 stoichiometry, fitting only one analyte in solution binding to one binding site on the surface. The equilibrium dissociation constant (KD), a measure for affinity, was then calculated as the ratio of Kd and Kₒₙ.

koff [s⁻¹]	Kd [nM]	kon [M⁻¹ s⁻¹]	Binder
0.0225			B15
0.00125	20.9	59800	B16
